Laboratory results: patent US20140073556A1 (published 2014)

Target: T1, recombinant protein comprising the whole extracellular part of IL1RI (UniProt P14778 18-336)
T1 chain: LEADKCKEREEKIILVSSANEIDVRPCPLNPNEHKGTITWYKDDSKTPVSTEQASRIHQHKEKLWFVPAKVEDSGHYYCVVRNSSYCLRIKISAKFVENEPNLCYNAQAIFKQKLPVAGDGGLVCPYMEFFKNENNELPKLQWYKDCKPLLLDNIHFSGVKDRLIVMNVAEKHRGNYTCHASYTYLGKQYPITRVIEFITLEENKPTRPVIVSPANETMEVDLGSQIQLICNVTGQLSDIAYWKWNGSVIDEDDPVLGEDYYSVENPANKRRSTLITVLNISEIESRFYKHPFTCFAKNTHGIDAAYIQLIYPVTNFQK
Assay: SPR

Binder: SGRKSSKMQA [Ilantafin peptide (SEQ ID NO:1), SGRKSSKMQA]
- Kd: 171 nM
